The values that follow come from PMC8246987.

In this assay the target is T1, DJ‐1 (human (endogenous in HEK‐293)), Q99497.
T1 chain: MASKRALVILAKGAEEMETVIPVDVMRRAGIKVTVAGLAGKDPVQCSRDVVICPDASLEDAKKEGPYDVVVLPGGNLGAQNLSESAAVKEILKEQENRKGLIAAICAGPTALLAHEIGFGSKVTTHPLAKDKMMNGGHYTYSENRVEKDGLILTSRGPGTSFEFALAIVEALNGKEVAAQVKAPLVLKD
Put plainly: cross-linking. Particulars: remark: other sources report otherwise.

B1: DJ‐1, Q99497 1-189 (natural protein)
chain: T1 chain
In the case of B1, the stoichiometry N (as a rule, a count of units in the complex or per binding partner) is 2.
